Source: patent US10118965B2, “Compositions and methods related to anti-EGFR antibody drug conjugates” (LegoChem Biosciences, Inc., priority 2015, dated 2018)
pIC50: −log10 of the molar value. Each block holds one molecule with its values, some of them ahead of it. Where a SMILES comes first, the peptide text is derived from it. [ ]: non-standard residue; d: D form. Dolaproine = CO[C@@H]([C@@H]1CCCN1)[C@@H](C)C(=O)O; Dil = CC[C@H](C)[C@H](NC)[C@@H](CC(=O)O)OC; NMeV = CN[C@H](C(=O)O)C(C)C

Tests used:
[1] = molecular target: epidermal growth factor receptor (EGFR) (human) (UniProt P00533); experiment: flow cytometry on A431 cells, 0.5 µg/mL primary antibody, anti-human IgG1-PE secondary
[2] = molecular target: epidermal growth factor receptor (EGFR) (human) (UniProt P00533); experiment: flow cytometry on A431 cells, 2 µg/mL human IgG1 negative control, anti-human IgG1-PE secondary (cell only: 11.76)
[3] = molecular target: epidermal growth factor receptor (EGFR) (human) (UniProt P00533); experiment: flow cytometry on A431 cells, 2 µg/mL human IgG1 negative control, anti-human IgG1-PE secondary (cell only: 11.7)
[4] = molecular target: epidermal growth factor receptor (EGFR) (human) (UniProt P00533); experiment: flow cytometry on A431 cells, 2 µg/mL human IgG1 negative control, anti-human IgG1-PE secondary (cell only: 10.84)
[5] = system: HCC-827 cells; experiment: In vitro cytotoxicity, SRB assay, HCC-827 cells; assay type: cell-based; settings: HCC-827 (EGFR Intermediate: del E746_A750), 72 hours
Description: (§1) A431 cells, which express high levels of EGFR, and MCF-7 cells, which express low levels of EGFR, were plated at about 1000 cells per well in a 96-well plate in 100 μL of media. HCC-827 cells, which express an intermediate level of EGFR were plated at about 500 cells per well in a 96-well plate in 100 μL of media. The cells were incubated at 37° C. in 5% CO2 for 24 hours. […] The cells were incubated for 72 hours and then fixed for 1 hour at 4° C. after adding 100 μL of ice-cold 10% tricholoracetic acid to each well. Viable cells were counted using SRB dye (Sulphorhodamine, Sigma S 1402) and a Molecular Devices SpectraMax 190 plate reader running Softmax Pro v5, monitoring absorbance at 540 nm (FIG. 12).

[6] = system: MCF-7 cells; experiment: In vitro cytotoxicity, SRB assay, MCF-7 cells; assay type: cell-based; settings: MCF7 (EGFR low), 72 hours
Description: as §1

[7] = system: A431 cells; experiment: In vitro cytotoxicity, SRB assay, A431 cells; assay type: cell-based, human; settings: A431 (EGFR high), 72 hours
Description: as §1

Geometric Mean (PE-A fluorescence) [1]: 160
Molecule: Erbitux(LC)-G7CVIM (antibody)

Median (PE-A fluorescence) [2]: 11.4
Geometric Mean (PE-A fluorescence) [3]: 10.9
Peak Channel (PE-A fluorescence) [4]: 11.4
Molecule: Human IgG1 (antibody)

Molecule: CC[C@H](C)[C@@H]([C@@H](CC(=O)N1CCC[C@H]1[C@H](OC)[C@@H](C)C(=O)N[C@@H](Cc1ccccc1)C(=O)OC)OC)N(C)C(=O)[C@@H](NC(=O)[C@@H](NC)C(C)C)C(C)C [MMAF-Ome, monomethyl auristatin F-Ome] (H-[NMeV]V[Dil][Dolaproine]F-OMe)
pIC50 [5]: 8.70
pIC50 [6]: 8.74
pIC50 [7]: 8.95
